From patent publication US20130281314A1 (Genentech, published 2013)

Molecular target: T1, Wildtype ubiquitin (human, UniProt P0CG48 1-76)
T1 construct: also called wt; not shown: N-terminal 6xHis tag of the pET derivative vector
Assay: biolayer interferometry, USP14catC114A on sensors, steady state fit

Kd: 100 µM
B1: USP14catC114A (enzyme, UniProt P54578 91-494, looked up)
chain: DMTEEQLASAMELPCGLTNLGNTAYMNATVQCIRSVPELKDALKRYAGALRASGEMASAQYITAALRDLFDSMDKTSSSIPPIILLQFLHMAFPQFAEKGEQGQYLQQDANECWIQMMRVLQQKLEAIEDDSVKETDSSSASAATPSKKKSLIDQFFGVEFETTMKCTESEEEEVTKGKENQLQLSCFINQEVKYLFTGLKLRLQEEITKQSPTLQRNALYIKSSKISRLPAYLTIQMVRFFYKEKESVNAKVLKDVKFPLMLDMYELCTPELQEKMVSFRSKFKDLEDKKVNQQPNTSDKKSSPQKEVKYEPFSFADDIGSNNCGYYDLQAVLTHQGRSSSSGHYVSWVKRKQDEWIKFDDDKVSIVTPEDILRLSGGGDWHIAYVLLYGPRRVEIMEEESEQ
modifications: monobiotinylated at the C-terminal Avi tag
notes: range 91-494; N-terminal His tag removed with TEV protease; also called catalytic domain of USP14 (residues D91-Q494) with a C114A mutation; not shown: C-terminal Avi tag
